Reference: US6699839B1, “Lantibiotic from Streptococcus mutans, method of production and use thereof” (Universite Laval, priority 1997, dated 2004)

What was measured:
[1] = system: Clostridium bifermentants; experiment: Growth inhibition; type: cell-based
[2] = Heat stability of activity; type: physicochemical
[3] = Stability of activity to enzymes; type: physicochemical
[4] = system: Flavobacterium capsulatum; experiment: Growth inhibition; type: cell-based; conditions: a Gram-negative strain
[5] = Polarity calculation from RP-HPLC elution; type: physicochemical; conditions: calculated from elution at 33.3% acetonitrile, RP-HPLC C18 (Snyder formula)
Protocol: The polarity was calculated from the percentage of acetonitrile at which the substance eluted according to the formula given by Snyder (Snyder, L. R., 1978, Chromatogr. Sci. 16:223-234).

[6] = system: Staphylococcus haemolyticus 2344; experiment: Sensitivity titer of multi-drug resistant staphylococci clinical isolates; type: cell-based; conditions: resistant to AM-K-S-CF-E-P-Cl-TE
Protocol: (§1) Trypticase Soy Agar (Difco Laboratories, Detroit, Mich.) plates enriched with 0.3% yeast extract were overlaid with 5 ml of melted TSAYE containing a standardized suspension (0.2 ml of an exponentially growing culture at an optical density of 0.1 at 600 nm) of Micrococcus luteus ATCC 272 (ATCC, Rockville, Md.). In order to assess the activity of mutacin samples, two-fold dilutions were prepared in 0.11% TFA (Sigma Chemical Co., St. Louis, Mo.) and 5 μl of each dilution deposited on top of the indicator plates. Mutacin activity was expressed in arbitrary units, which correspond to the reciprocal of the last dilution giving a clear inhibition zone against M. luteus after 24 h of incubation at 37° C. under aerobic conditions (Parrot et al., 1989, Can. J. Microbiol. 35:366-372).
(§2) The sensitivity of multi-drug resistant strains to mutacin B-Ny266 purified to homogeneity was assessed. In parallel the sensitivity of these strains to nisin was determined.

[7] = system: Staphylococcus epidermidis 3176; experiment: as above; type: cell-based; conditions: resistant to AM-GM-K-CF-E-P-Cl
Protocol: as §1, §2

[8] = system: Staphylococcus epidermidis 1656; experiment: as above; type: cell-based; conditions: resistant to AM-K-S-CF-E-P-Cl-TE
Protocol: as §1, §2

[9] = system: Micrococcus luteus ATCC 272; experiment: Sensitivity titer on a lawn of the tested strain (control strain); type: cell-based; conditions: Micrococcus luteus ATCC 272 (control); antibiotic resistance: None
Protocol: as §1, §2

Neisseria subflava = experiment: Growth inhibition; type: cell-based
Bacillus cereus = experiment: Growth inhibition; type: cell-based

Which results are given for “Mutacin B-Ny266: type A lantibiotic produced by Streptococcus mutans B-Ny266; F-K-A-W-U-F-A-Abu-P-G-A-A-K-O-G-A-F-N-U-Y-A-SADC”?
growth inhibition [1]: inhibits the growth; resistance to temperature ([2]; 100° C. for 30 min): resistant; activity after heat treatment ([2]; 121° C. for 30 min): destroyed; activity after enzyme treatment ([3]; alpha-chymotrypsin): destroyed; resistance to enzymes ([3]; many enzymes): resistant; activity after enzyme treatment ([3]; papain): destroyed; activity after enzyme treatment ([3]; pronase E): destroyed; activity after enzyme treatment ([3]; proteinase K): destroyed; activity after enzyme treatment ([3]; trypsin): destroyed; growth inhibition [4]: inhibit; polarity [5]: 8.067; titer (highest dilution producing an inhibitory zone on a lawn of the tested strain) [6]: 16; titer (highest dilution producing an inhibitory zone on a lawn of the tested strain) [7]: 16; titer (highest dilution producing an inhibitory zone on a lawn of the tested strain) [8]: 16; titer (highest dilution producing an inhibitory zone on a lawn of the tested strain) [9]: 64; growth inhibition (Neisseria subflava): inhibits the growth; growth inhibition (Bacillus cereus): inhibits the growth
